Measured values reported in patent US6890720B1, “Antigens derived from filaggrin and their use for diagnosing rheumatoid polyarthritis” (Biomerieux, priority 1996, dated 2005).

Assays:
[1] = test system: AFAs of the sera from patients suffering from RA; experiment: Immunoblot of citrullinated and noncitrullinated fil-gst with individual sera and purified AFAs; type: binding, human; conditions: citrullinated fil-gst; purified AFAs 4 μg/ml
Method: In a first series of experiments (FIG. 4a), the reactivity of noncitrullinated fil-gst (fil-gst alone, 30 minutes at 50° C.) and fil-gst citrullinated with PAD 30 minutes at 50° C. is compared with human sera composed of: • sera from normal persons: T(2) and T(3) • sera from patients suffering from RA having high AFA titers which are detected by immunotransfer on acido-neutral variants of human filaggrin, and by indirect immunofluorescence on cryosections of rat esophagus: RA(6) and RA(8); • anti-filaggrin antibodies purified from the serum from a patient suffering from RA by affinity chromatography, on a column grafted with acido-neutral isoforms of human filaggrin: AFA.
A positive control is also carried out with the monoclonal antibody AHF2.
In a second series of experiments (FIG. 4b), the reactivity of citrullinated fil-gst is confirmed with a largest series of sera: • 4 control sera: T(4) • 4 sera from patients suffering from RA not having AFAs detected by immunotransfer or by indirect immunofluorescence: RA(4) • 9 sera from patients suffering from RA with high AFA titers (three of them (*) were also tested in the first series of experiments): RA(9) • anti-filaggrin antibodies purified by affinity chromatography, on a column grafted with the acido-neutral isoforms of filaggrin, from a pool of sera from 40 patients suffering from RA: AFA • the monoclonal antibodies AHF (1-7). […]

[2] = test system: serum from a patient suffering from RA; experiment: Dot-blot of peptides and fil-gst before and after PAD, serum from an RA patient; type: binding, human; conditions: after citrullination (PAD 30 minutes at 50° C.); 0.5 μg antigen per deposit; serum 1/2000
Method: These 2 peptides, as well as fil-gst, were citrullinated by the action of PAD, for 30 minutes at 50° C., in the same reaction medium as that indicated in Example 2. The specific conditions for each peptide, and for the fil-gst are the following: • peptide S-47-S (SEQ ID NO:3): 4 mU/μmol arginine • peptide S-35-R (SEQ ID NO:4): 2.7 mU/μmol arginine • fil-gst as indicated in Example 2.
The reactivity of each peptide and that of fil-gst, before and after action of the enzyme, towards the monoclonal antibody AHF4, and the serum from a patient suffering from RA, is compared by dot-blot.
The operating conditions are the following: • 0.5 μg by deposition of each antigen (peptides, fil-gst, acido-neutral variants of filaggrin (AVF)) • nitrocellulose treatment 45 minutes at 80° C., before immunodetection • RA serum used at the dilution of 1/2000; monoclonal antibody AHF4 used at a concentration of 0.2 μg/ml

B1: citrullinated fil-gst: fil-gst deiminated in vitro by rabbit muscle peptidylarginine deiminase (protein)
chain: QSESAHGRTGTSTGGRQGSHHKQARDSSRHSTSQEGQDTIHGHPGSSSGGRQGSHYEQLVDRSGHSGSHHSHTTSQGRSDASHGHSGSRSASRQTRNDEQSGDGSRHSGSRHHEASSRADSSGHSQVGQGQSEGPRTSRNWGSSFSQDSDSQGHSEDSERWSGSASRNHHGSAQEQLRDGSRHPRSHQEDRAGHGHSADSSRQSGTRHTQTSSGGQAASSHEQARSSAGERHGSHHQQSADSSRHSGIGHGQASSAVRDSGHRGYSGSQASDNEGHSEDSDTQSVSAHGQAGSHQQSHQESARGRSGETSGHSGSFLYQVSTHE
modifications: non-natural residues; left off: a dimerising Fc or GST
notes: fil-gst deiminated in vitro by rabbit muscle peptidylarginine deiminase
reactivity of antifilaggrin autoantibodies purified by affinity chromatography from RA sera [1]: recognition of the fragments corresponding to lanes 1 to 5
recognition by the serum from the patient suffering from RA [2]: recognizes
